Laboratory results published in the Human Domainome abundance scans (Beltran et al. 2025).
± gives the uncertainty stated by the source.

B1: Transitional endoplasmic reticulum ATPase, residues 26 to 106; numbered along this chain, P55072 (parent)
chain: LIVDEAINEDNSVVSLSQPKMDELQLFRGDTVLLKGKKRREAVCIVLSDDTCSDEKIRMNRVVRNNLRVRLGDVISIQPCP

Variants of: B1
Experiment: abundance fitness (aPCA) (normalised: wild type 0, dead -1); higher = more abundant; growth selection in yeast, the domain comes from the species named
Settings: Homo sapiens

Variant	abundance fitness
L47A	0.082 ± 0.061
L47D	-0.056 ± 0.076
L47E	0.055 ± 0.09
L47H	0.126 ± 0.12
L47I	-0.042 ± 0.083
L47M	0.082 ± 0.095
L47Y	-0.087 ± 0.16
L47N	0.028 ± 0.16
L47T	-0.116 ± 0.099
V63G	-0.253 ± 0.058
V63W	-0.342 ± 0.1
V63K	-0.433 ± 0.11
V63L	0 ± 0.061
I2S	-0.196 ± 0.065
I2V	-0.058 ± 0.068
L26D	-0.768 ± 0.26
L26E	-1.02 ± 0.24
L26Q	-0.763 ± 0.13
L26I	-0.078 ± 0.13
L26M	-0.047 ± 0.092
L26H	-0.609 ± 0.3
K20T	-0.08 ± 0.071
K20W	-0.391 ± 0.14
K20N	-0.093 ± 0.1

Variant	abundance fitness
K20L	0.01 ± 0.051
K20P	-1.19 ± 0.36
P79W	-0.304 ± 0.093
P79Y	-0.208 ± 0.12
P79C	-0.099 ± 0.096
F27S	0.085 ± 0.045
F27D	0.069 ± 0.1
F27L	0.026 ± 0.052
F27A	0.042 ± 0.048
F27I	-0.04 ± 0.062
F27H	0.028 ± 0.099
F27K	-0.023 ± 0.092
F27G	0.016 ± 0.05
F27M	-0.045 ± 0.077
F27Y	-0.109 ± 0.075
I7T	-0.099 ± 0.079
I7S	-0.048 ± 0.061
L34M	-0.073 ± 0.11
L34V	-0.047 ± 0.07
L34P	-1.04 ± 0.43
D4V	-0.082 ± 0.048
D4I	0.052 ± 0.12
D4S	-0.018 ± 0.05
D4F	-0.345 ± 0.11

Variant	abundance fitness
D4Q	-0.179 ± 0.071
D73V	-0.949 ± 0.093
D73M	-0.391 ± 0.11
N8F	-0.083 ± 0.12
N8Y	0.006 ± 0.13
N8I	-0.042 ± 0.14
V13K	-0.183 ± 0.064
V13Y	0.044 ± 0.084
V13W	-0.006 ± 0.053
V13P	-0.457 ± 0.088
V13G	-0.06 ± 0.03
P19E	0.087 ± 0.088
P19G	0.063 ± 0.045
P19A	-0.018 ± 0.054
P19Q	0.093 ± 0.1
S15H	-0.039 ± 0.09
V62K	0.003 ± 0.092
V62D	0.004 ± 0.12
V62Y	-0.195 ± 0.13
V62W	-0.028 ± 0.063
V62G	0.025 ± 0.052
V62M	0.022 ± 0.087
V62N	0.109 ± 0.21
D10T	-0.01 ± 0.068

Variant	abundance fitness
D10M	-0.054 ± 0.058
D10Q	-0.072 ± 0.072
D10L	-0.105 ± 0.042
D10E	-0.159 ± 0.077
E23G	-0.079 ± 0.061
E23D	-0.23 ± 0.12
E23Y	-0.164 ± 0.27
S48D	-0.137 ± 0.1
S48M	-0.05 ± 0.094
S48T	-0.005 ± 0.074
R58I	-0.089 ± 0.2
R58P	-0.927 ± 0.32
R58H	-0.246 ± 0.25
R58L	-0.037 ± 0.072
L33M	0.019 ± 0.083
L33R	-0.068 ± 0.046
L33F	-0.318 ± 0.17
R61N	-0.091 ± 0.15
R61Y	-0.059 ± 0.21
R61L	-0.006 ± 0.062
R61Q	-0.036 ± 0.18
R61H	-0.157 ± 0.18
R61D	-0.024 ± 0.14
S12G	0.029 ± 0.045

Variant	abundance fitness
S12Y	-0.119 ± 0.099
S12R	-0.038 ± 0.04
S12A	0.035 ± 0.048
S12C	-0.056 ± 0.07
M21I	-0.124 ± 0.11
M21E	-0.731 ± 0.31
M21L	0.048 ± 0.074
M21C	-0.435 ± 0.12
M21R	-0.888 ± 0.055
M21A	-0.638 ± 0.071
M21H	-1.21 ± 0.41
M21P	-0.902 ± 0.25
I75M	-0.2 ± 0.11
I75L	-0.155 ± 0.054
I75V	-0.039 ± 0.069
I75F	-0.859 ± 0.15
K56S	0.034 ± 0.061
K56C	0.027 ± 0.085
K56T	0.091 ± 0.085
K56D	-0.271 ± 0.15
K56V	-0.021 ± 0.063
I45A	-0.006 ± 0.057
I45K	-0.002 ± 0.13
I45R	0.054 ± 0.055

Variant	abundance fitness
I45W	-0.176 ± 0.086
I45P	-0.157 ± 0.12
I45S	-0.028 ± 0.059
I45V	0.028 ± 0.032
K37F	-0.124 ± 0.14
R28G	-0.027 ± 0.052
S53H	-0.102 ± 0.12
S53E	0.003 ± 0.091
S53M	-0.09 ± 0.073
S53D	0.021 ± 0.14
S53L	-0.026 ± 0.065
V74Y	-0.052 ± 0.11
V74E	0.051 ± 0.11
V74I	-0.115 ± 0.091
V74F	0.042 ± 0.078
V74A	0.031 ± 0.077
V74S	-0.048 ± 0.064
V74D	-0.022 ± 0.091
L16W	-0.912 ± 0.14
L16K	-0.783 ± 0.15
L16G	-0.895 ± 0.063
L16F	-0.267 ± 0.085
L67F	-0.411 ± 0.14
D22F	-0.1 ± 0.063

Variant	abundance fitness
D22G	-0.101 ± 0.046
D22N	-0.036 ± 0.069
D22R	-0.015 ± 0.04
Q18K	-0.037 ± 0.19
Q18S	-0.052 ± 0.069
Q18N	-0.461 ± 0.32
Q18H	0.036 ± 0.17
R40G	0.107 ± 0.055
R40W	-0.059 ± 0.16
R40F	-0.006 ± 0.13
R40M	-0.077 ± 0.12
R40Q	-0.039 ± 0.15
R40V	0.027 ± 0.045
R40N	-0.075 ± 0.12
D49Y	-0.745 ± 0.23
D49L	-0.904 ± 0.15
D49K	-0.529 ± 0.41
K38C	-0.225 ± 0.18
K38Y	-0.088 ± 0.14
K38H	-0.05 ± 0.18
C52F	-0.495 ± 0.27
C52T	-0.027 ± 0.071
C52Q	-0.026 ± 0.095
